Measurements from patent publication US20220073617A1 (Five Prime, published 2022).
Residue numbers refer to the chain shown, from its start. In names and notes the source's numbering stands. Several values for one entry are separate records, joined by “and”; a condition that tells them apart may be missing. Equal entries are not always repeated. Each block holds one binder with its values, some of them ahead of it.

What was measured:
[1] = target: T1, monovalent hVISTA-ECD (human VISTA extracellular domain with His tail) (human, UniProt Q9H7M9 33-193); assay: SPR, pH 7.4
T1 construct: analyte flowed over captured antibody; also called huVISTA-His

[2] = target: T2, cyno VISTA-ECD (cynomolgus VISTA extracellular domain with His tail) (cynomolgus macaque, UniProt Q9H7M9 33-193 (human entry)); assay: SPR, pH 7.4
T2 construct: also called cyVISTA-His
T2 chain: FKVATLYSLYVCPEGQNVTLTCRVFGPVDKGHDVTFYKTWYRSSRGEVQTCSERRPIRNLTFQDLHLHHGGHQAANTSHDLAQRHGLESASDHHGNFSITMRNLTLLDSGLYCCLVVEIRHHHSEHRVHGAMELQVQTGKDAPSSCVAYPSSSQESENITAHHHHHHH

[3] = target: T1, monovalent hVISTA-ECD (human VISTA …); assay: SPR, pH 6.0
[4] = target: T2, cyno VISTA-ECD (cynomolgus VISTA …); assay: SPR, pH 6.0
[5] = target: T1, monovalent hVISTA-ECD (human VISTA …); assay: SPR, pH 6.0; remark: listed apart in the source
Method: (§1) Binding of several preparations of each of the '029 progeny clones and of the parent '029 antibodies, formatted as IgG1.3 antibodies, to human VISTA at pH 6.0 and 7.4 was measured by Surface plasmon resonance (SPR). SPR analysis was performed to measure koff and KD binding affinity measurements for VISTA Abs at acidic and neutral pHs using a Biacore® T100 instrument (GE Healthcare). Protein A (ThermoFisher Scientific catalog #21181) was diluted to 20 ug/ml in 10 mM sodium acetate pH 4.5 and immobilized onto flow cells of a CM5 biosensor following the manufacturer's amine coupling protocol (GE Healthcare), targeting 2,000 RU immobilization density of Protein A per flow cell. SPR experiments were conducted at 37° C. using PBST (137 mM sodium chloride, 2.7 mM potassium chloride, 10 mM phosphate buffer, 0.05% Tween® 20) running buffer at pH 7.4 and 6.0. Antibodies were diluted to 25 nM in PBST pH 7.4, and were captured across active biosensor flow cells at 5 ul/min for 60 seconds. […] Two 15 second injections of 10 mM glycine pH 1.5 were used to regenerate the Protein A capture surface between assay cycles. Rate constants ka (kₒₙ) and kd (koff) were derived from reference flow cell and 0 nM blank-subtracted sensorgrams, and were fit to a 1:1 binding model in Biacore® T200 Evaluation Software v.2.0. The affinity constant, KD was calculated as the ratio of rate constants koff/kₒₙ for each VISTA antibody.
(§2) This initial campaign led to pH-independent VISTA.4 variants with near equivalent koff at pH 6 and pH 7. In order to obtain an antibody that binds to hVISTA with high affinity at pH 6.0 and low affinity at pH 7.0, a new library based on consensus sequence of pH-independent VISTA.4 variants was designed and constructed, with amino acid residues in the loops substituted for charge amino acid residues (see Example 9), and screened via yeast surface display (see Example 9). The library was analyzed as previously described (see Example 9) and selected variants were reformatted as IgG1.3 for further analysis (Tables 26 and 27). SPR analysis was conducted on these variants using the conditions previously described in Example 9.

[6] = target: T1, monovalent hVISTA-ECD (human VISTA …); assay: SPR, pH 6.0, average
Method: as §1, with “antibody. […]” for “antibody.”

[7] = target: T1, monovalent hVISTA-ECD (human VISTA …); assay: SPR, pH 7.4; remark: listed apart in the source
Method: as §1, §2

[8] = target: T1, monovalent hVISTA-ECD (human VISTA …); assay: SPR, pH 7.4, average
Method: as §1
Some of the VISTA.4 mutants described above and new mutants were tested for binding to hVISTA, according to the methods described in Example 9. […] Antibody 41F11_VH_T28P/Y50W/S55E/D95H/L96E/P97E/Y100E; VK_A64G (P1-070976) is the only VISTA.4 derivative that is pH selective.

[9] = target: T1, monovalent hVISTA-ECD (human VISTA …); assay: SPR, pH 6.0; remark: listed apart in the source
[10] = target: T1, monovalent hVISTA-ECD (human VISTA …); assay: SPR, pH 7.4; remark: listed apart in the source
[11] = target: T1, monovalent hVISTA-ECD (human VISTA …); assay: SPR, pH 7.4; remark: listed apart in the source
Method: as §1

[12] = target: T1, monovalent hVISTA-ECD (human VISTA …); assay: SPR
Method: as §1

[13] = target: T1, monovalent hVISTA-ECD (human VISTA …); assay: SPR; remark: listed apart in the source
[14] = target: T1, monovalent hVISTA-ECD (human VISTA …); assay: SPR, pH 6.0; remark: listed apart in the source
Method: as §1

[15] = target: avidin (ThermoFisher Scientific catalog #21128) (UniProt P02701 25-152); assay: SPR 25C pH 6.0 and 7.4
avidin (ThermoFisher Scientific catalog #21128), sequence (P02701 25-152 limits assumed): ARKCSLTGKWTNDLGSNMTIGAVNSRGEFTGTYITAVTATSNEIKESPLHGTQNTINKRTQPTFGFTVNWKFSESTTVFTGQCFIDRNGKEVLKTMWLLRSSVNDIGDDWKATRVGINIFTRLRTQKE
Method: (§3) The binding specificity of the '029, '761 and '767 clones to VISTA and to other high pI proteins was evaluated by SPR at neutral and acidic pH using a Biacore® T100 instrument (GE Healthcare). Protein A (ThermoFisher Scientific catalog #21181) was diluted to 20 ug/ml in 10 mM sodium acetate pH 4.5 and immobilized onto flow cells of a CM3 biosensor following the manufacturer's amine coupling protocol (GE Healthcare), targeting 800 RU immobilization density of Protein A per flow cell. SPR experiments were conducted at 25° C. using PBST (137 mM sodium chloride, 2.7 mM potassium chloride, 10 mM phosphate buffer, 0.05% Tween 20) running buffer at pH 7.4 and 6.0. Antibodies (formatted as IgG1.3 antibodies) were diluted to 50 nM in PBST pH 7.4, and were captured across active biosensor flow cells at 5 ul/min for 60 seconds. […] Two 15 second injections of 10 mM glycine pH 1.5 were used to regenerate the Protein A capture surface between assay cycles. Reference flow cell and 0 nM blank-subtracted sensorgrams were inspected using Biacore® T200 Evaluation Software v.2.0. The results are shown in […]

[16] = target: BSA (Calbiochem catalog #126593) (UniProt P02769 25-607); assay: SPR 25C pH 6.0 and 7.4
BSA (Calbiochem catalog #126593), sequence (P02769 25-607 limits assumed): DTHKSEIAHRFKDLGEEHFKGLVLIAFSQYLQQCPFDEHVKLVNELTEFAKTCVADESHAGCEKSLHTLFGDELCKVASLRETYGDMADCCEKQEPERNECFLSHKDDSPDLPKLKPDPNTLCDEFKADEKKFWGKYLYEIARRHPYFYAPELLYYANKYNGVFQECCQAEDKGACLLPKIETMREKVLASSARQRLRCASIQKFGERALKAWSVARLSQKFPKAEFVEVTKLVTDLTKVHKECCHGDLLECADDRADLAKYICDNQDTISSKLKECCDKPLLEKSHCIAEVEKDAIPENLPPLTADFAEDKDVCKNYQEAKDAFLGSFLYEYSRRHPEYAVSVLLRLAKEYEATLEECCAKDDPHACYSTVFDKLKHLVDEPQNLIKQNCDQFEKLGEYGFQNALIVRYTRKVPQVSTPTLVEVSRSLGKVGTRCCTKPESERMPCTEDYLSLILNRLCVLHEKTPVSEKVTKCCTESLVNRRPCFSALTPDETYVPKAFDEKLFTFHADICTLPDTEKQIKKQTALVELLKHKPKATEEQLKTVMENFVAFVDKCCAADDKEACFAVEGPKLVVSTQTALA
Method: as §3

B1: P1-072315 (41F11_VH_T28P/Y50W/S55E/L96E/Y100E VK_A64G) (antibody, V domains shown)
VH: QVQLVESGGGLVKPGGSLRLSCAASGFPFSDYYMSWIRQAPGKGLEWVSWISNSGEPIYYADSVKGRFTISRDNAKNSLYLQMNSLRAEDTAVYYCARDEPGWEFDLWGRGTLVTVSS
VL: EIVLTQSPATLSLSPGERATLSCRASQSVSSYLAWYQQKPGQAPRLLIYDASNRATGIPARFSGSGSGTDFTLTISSLEPEDFAVYYCQQRNNWPRTFGQGTKVEIK
notes: Same variable-region description as P1-065333 under another ID; also called P1-072315-1
Kd [1]: 2.5 nM
koff [1]: 0.00079 s⁻¹
kon [1]: 320000 M⁻¹ s⁻¹
Kd [2]: 1.9 nM
koff [2]: 0.00068 s⁻¹
kon [2]: 350000 M⁻¹ s⁻¹
Kd [3]: 0.35 nM
koff [3]: 0.0015 s⁻¹
kon [3]: 4.2e+06 M⁻¹ s⁻¹
Kd [4]: 0.6 nM
koff [4]: 0.0016 s⁻¹
kon [4]: 2.7e+06 M⁻¹ s⁻¹

B2: P1-070976 (41F11_VH_T28P/Y50W/S55E/D95H/L96E/P97E/Y100E; Vk_A64G) (antibody, human IgG1, kappa, V domains shown)
VH: B1 VH with D99H, P101E
VL: EIVLTQSPATLSLSPGERATLSCRASQSVSSYLAWYQQKPGQAPRLLIYDASNRATGIPARFSGSGSGTDFTLTISSLEPEDFAVYYCQQRNNWPRTFGQGTKVEIKR
notes: IgG1.3; also called P1-070976-7; acidic pH selective VISTA.4 progeny
Kd [5]: 15 nM
koff [5]: 0.0028 s⁻¹
kon [5]: 190000 M⁻¹ s⁻¹
Kd [1]: 2300 nM
koff [1]: 0.14 s⁻¹
kon [1]: 61000 M⁻¹ s⁻¹
Kd [2]: 5900 nM
koff [2]: 0.026 s⁻¹
kon [2]: 4400 M⁻¹ s⁻¹
Kd [3]: 13 nM
koff [3]: 0.0028 s⁻¹
kon [3]: 230000 M⁻¹ s⁻¹
Kd [4]: 24 nM
koff [4]: 0.0038 s⁻¹
kon [4]: 160000 M⁻¹ s⁻¹
Kd [6]: 23 nM
koff [6]: 0.0026 s⁻¹
kon [6]: 110000 M⁻¹ s⁻¹

B4: P1-065333 (41F11_VH_T28P/Y50W/S55E/L96E/Y100E VK_A64G) (antibody, human IgG1, kappa, V domains shown)
VH: B1 VH
VL: B2 VL
notes: IgG1.3; also called P1-065333-1; VISTA.4 pH-independent progeny
Kd [7]: 2.2 nM
koff [7]: 0.00094 s⁻¹
kon [7]: 430000 M⁻¹ s⁻¹
Kd [8]: 3.2 nM
koff [8]: 0.00078 s⁻¹
kon [8]: 240000 M⁻¹ s⁻¹
Kd [5]: 0.47 nM
koff [5]: 0.0018 s⁻¹
kon [5]: 3.8e+06 M⁻¹ s⁻¹
Kd [11]: 1.9 nM
kd improvement vs parent [11]: 1 fold
koff [11]: 0.00093 s⁻¹
kon [11]: 480000 M⁻¹ s⁻¹
pH 6.0/7.4 KD [12]: 0.2
pH 6.0/7.4 kd [12]: 1.4
KD ratio (pH 7.4/pH 6.0) [13]: 7.3
Kd [9]: 0.434 nM
koff [9]: 0.00142 s⁻¹
kon [9]: 3.28e+06 M⁻¹ s⁻¹
Kd [14]: 0.38 nM
kd improvement vs parent [14]: 81.7 fold
koff [14]: 0.0013 s⁻¹
kon [14]: 3.4e+06 M⁻¹ s⁻¹
Kd [10]: 3.17 nM
koff [10]: 0.000883 s⁻¹
kon [10]: 278000 M⁻¹ s⁻¹
Kd [6]: 0.56 nM
koff [6]: 0.0015 s⁻¹
kon [6]: 2.7e+06 M⁻¹ s⁻¹

The next lines start with the values.

Kd [7]: 1.7 nM
koff [7]: 0.00093 s⁻¹
kon [7]: 550000 M⁻¹ s⁻¹
Kd [8]: 4 nM
koff [8]: 0.00091 s⁻¹
kon [8]: 230000 M⁻¹ s⁻¹
Kd [5]: 38 nM
koff [5]: 0.086 s⁻¹
kon [5]: 2.3e+06 M⁻¹ s⁻¹
Kd [9]: 17.4 nM and 16.6 nM
koff [9]: 0.0403 s⁻¹ and 0.0395 s⁻¹
kon [9]: 2.31e+06 M⁻¹ s⁻¹ and 2.37e+06 M⁻¹ s⁻¹
Kd [10]: 4.48 nM and 4.19 nM
koff [10]: 0.00103 s⁻¹ and 0.00105 s⁻¹
kon [10]: 231000 M⁻¹ s⁻¹ and 250000 M⁻¹ s⁻¹
Kd [6]: 40 nM
koff [6]: 0.033 s⁻¹
kon [6]: 830000 M⁻¹ s⁻¹
B3: VISTA.4 A64G (41F11 Vk:A64G) (antibody, human IgG1, kappa, V domains shown)
VH: B1 VH with P28T, W50Y, E56S, E100L, E104Y
VL: B2 VL
notes: IgG1.3; also called P1-061520; P1-061520-10

binding result [15]: no binding (tested: <=10 RU, 100-10 nM)
binding result [16]: no binding (tested: <=10 RU, 100-10 nM)
B5: P1-068767.IgG1.3 (antibody, V domains shown)
VH: EVQLVESGGGLVQPGKSLRLSCAASGFTLEDYAMHWVRQAPGKGLEWVSGIDWNSENIGYADSVKGRFTISRDNAKNSLYLQMNSLRTEDTALYYCAKVPGYSGGWIDAEDDWGQGTMVTVSS
VL: not shown
notes: also called P1-068767 hIgG1.3f; VISTA.18
